This is an account of results in publication doi:10.1101/2022.01.31.478542.

One data set can be described thus: turbidity. As to conditions: other: turbidity (light scattering at 340 nm) of cell-free assembly.
Another data set concerns P04590. As to the kind of experiment: turbidity. The note with it: other: turbidity (light scattering at 340 nm) of cell-free assembly.

“HIV-2 CA-NC protein (Gag amino acids 136-431), CA A41D mutant”: in “turbidity”, the “fold lower turbidity (A340 nm) at 120 min than WT” value (“fold lower turbidity (A340 nm)” below) is 25-fold (A41D) lower than that of WT and the “normalized A340 nm (turbidity), whole time course” value is “low turbidity readings (i.e., < 0.36)”.

“HIV-2 CA-NC protein (Gag amino acids 136-431), CA G38M mutant”: in the data set “turbidity”, the “fold lower turbidity (A340 nm)” value was 7.0-fold (i.e., G38M, N127E, I152A) and the normalized A340 nm (turbidity) worked out at 0.34. As to “HIV-2 CA-NC protein (Gag amino acids 136-431), CA I152A mutant”, in the data set “turbidity”, the “fold lower turbidity (A340 nm)” value is on record as 7.0-fold (i.e., G38M, N127E, I152A) and the normalized A340 nm (turbidity) came to 0.65.

“HIV-2 CA-NC protein (Gag amino acids 136-431), CA L19A mutant” returned a normalized A340 nm (turbidity) in “turbidity” of 1.77.

In the case of “HIV-2 CA-NC protein (Gag amino acids 136-431), CA N127E mutant”, in the data set “turbidity”, the “fold lower turbidity (A340 nm)” value was 7.0-fold (i.e., G38M, N127E, I152A). For the substance “HIV-2 CA-NC protein (Gag amino acids 136-431), wild type”, in the data set with P04590, the “normalized A340 nm (turbidity), peak at 20 min” value was “peaked at 20 min (i.e., 1.27)” and the “normalized A340 nm (turbidity), stable value after the peak” value is recorded as “remained stable (i.e., 0.56)”.
